Data as given in patent publication US20230212587A1, “Mutant Hydroxyphenylpyruvate Dioxygenase Polypeptide, Encoding Gene Thereof and Use Therefor” (Beijing Dabeinong Biotechnology Co., Ltd., priority 2019, published 2023).
Positions count from the first letter of the chain named. Numbers in names are those of the source.

B1: F372D (protein, listed as Avena sativa)
chain: MPPTPATATGAAAAAVTPEHAARSFPRVVRVNPRSDRFPVLSFHHVELWCADAASAAGRFSFALGAPLAARSDLSTGNSAHASLLLRSGALAFLFTAPYAPPPQEAATAAATASIPSFSADAARTFAAAHGLAVRSVGVRVADAAEAFRVSVAGGARPAFAPADLGHGFGLAEVELYGDVVLRFVSYPDETDLPFLPGFERVSSPGAVDYGLTRFDHVVGNVPEMAPVIDYMKGFLGFHEFAEFTAEDVGTTESGLNSVVLANNSEAVLLPLNEPVHGTKRRSQIQTYLEYHGGPGVQHIALASNDVLRTLREMRARTPMGGFEFMAPPQAKYYEGVRRIAGDVLSEEQIKECQELGVLVDRDDQGVLLQIDTKPVGDRPTFFLEMIQRIGCMEKDEVGQEYQKGGCGGFGKGNFSELFKSIEDYEKSLEVKQSVVAQKS
modifications: AsHPPD Amido Acid Sequence
B2: AsHPPDm-L359W: Avena sativa HPPD mutant L359W, SEQ ID NO: 422 (protein)
chain: B1 chain with L359W, D372F
modifications: AsHPPDm-L359W Amino Acid Sequence
B3: AsHPPDm-Q284A: Avena sativa HPPD mutant Q284A, SEQ ID NO: 420 (protein)
chain: B1 chain with Q284A, D372F
modifications: AsHPPDm-Q284A Amino Acid Sequence
B4: AsHPPDm-A110: Avena sativa HPPD with deletion of alanine at position 110, SEQ ID NO: 414 (protein)
chain: MPPTPATATGAAAAAVTPEHAARSFPRVVRVNPRSDRFPVLSFHHVELWCADAASAAGRFSFALGAPLAARSDLSTGNSAHASLLLRSGALAFLFTAPYAPPPQEAATAATASIPSFSADAARTFAAAHGLAVRSVGVRVADAAEAFRVSVAGGARPAFAPADLGHGFGLAEVELYGDVVLRFVSYPDETDLPFLPGFERVSSPGAVDYGLTRFDHVVGNVPEMAPVIDYMKGFLGFHEFAEFTAEDVGTTESGLNSVVLANNSEAVLLPLNEPVHGTKRRSQIQTYLEYHGGPGVQHIALASNDVLRTLREMRARTPMGGFEFMAPPQAKYYEGVRRIAGDVLSEEQIKECQELGVLVDRDDQGVLLQIFTKPVGDRPTFFLEMIQRIGCMEKDEVGQEYQKGGCGGFGKGNFSELFKSIEDYEKSLEVKQSVVAQKS
modifications: AsHPPDm-A110 Amino Acid Sequence
B5: PfHPPDm-G413W: Pseudomonas fluorescens HPPD with G336W (position 413 of SEQ ID NO: 1), SEQ ID NO: 418 (protein)
chain: MADLYENPMGLMGFEFIEFASPTPGTLEPIFEIMGFTKVATHRSKNVHLYRQGEINLILNNEPNSIASYFAAEHGPSVCGMAFRVKDSQKAYNRALELGAQPIHIDTGPMELNLPAIKGIGGAPLYLIDRFGEGSSIYDIDFVYLEGVERNPVGAGLKVIDHLTHNVYRGRMVYWANFYEKLFNFREARYFDIKGEYTGLTSKAMSAPDGMIRIPLNEESSKGAGQIEEFLMQFNGEGIQHVAFLTDDLVKTWDALKKIGMRFMTAPPDTYYEMLEGRLPDHGEPVDQLQARGILLDGSSVEGDKRLLLQIFSETLMGPVFFEFIQRKGDDGFGEWNFKALFESIERDQVRRGVLTAD
modifications: PfHPPDm-G413W Amino Acid Sequence

System: Arabidopsis thaliana T1 plants
Assay: Topramezone tolerance of transgenic Arabidopsis thaliana T1 plants (pesticide damage grade by bleached leaf area, score, resistance evaluation)
Type: in vivo
Design: score: scale not given here
Source text: The Arabidopsisthaliana T1 plants into which the AsHPPDm-F372A-02 nucleotide sequence was introduced, Arabidopsis thaliana T1 plants into which the AsHPPD-02 nucleotide sequence was introduced and wild-type Arabidopsisthaliana plants (18 days after sowing) were sprayed with topramezone at four different concentrations, i.e., 25 g ai/ha (one-fold field concentration, 1×), 50 g ai/ha (two-fold field concentration, 2×), 100 g ai/ha (four-fold field concentration, 4×) and 0 g ai/ha (water, 0×) to determine the tolerance of Arabidopsisthaliana to the herbicide. The degree of damage caused by the herbicide was measured for each plant according to the proportion of bleached leaf area (the proportion of bleached leaf area=bleached leaf area/total leaf area×100%) 7 days after spraying (7 DAT): the case where there is basically no bleached phenotype is defined as grade 0, the case where the proportion of bleached leaf area is less than 50% is defined as grade 1,the case where the proportion of bleached leaf area is more than 50% is defined as grade 2, and the case where the proportion of bleached leaf area is 100% grade is defined as grade 3.
According to the method as described above in point 6 of Example 1, the aforementioned Arabidopsisthaliana T1 plants and wild-type Arabidopsisthaliana plants (18 days after sowing) were sprayed with topramezone at three different concentrations respectively, i.e., 25 g ai/ha (one-fold field concentration, 1×), 100 g ai/ha (four-fold field concentration, 4×) and 0 g ai/ha(water, 0×) to detect the tolerance of Arabidopsisthaliana to the herbicide.
According to the method as described above in point 6 of Example 1, the aforementioned Arabidopsisthaliana T1 plants and wild-type Arabidopsisthaliana plants (18 days after sowing) were sprayed with topramezone at three different concentrations respectively, i.e., 25 g ai/ha (one-fold field concentration, 1x), 100 g ai/ha (four-fold field concentration, 4x) and 0 g ai/ha (water, 0x) to detect the tolerance of Arabidopsisthaliana to the herbicide.
According to the method as described above in point 6 of Example 1, the above-mentioned Arabidopsisthaliana T1 plants, Arabidopsisthaliana T1 plants into which the AsHPPD-02 nucleotide sequence was introduced, Arabidopsisthaliana T1 plants into which the PfHPPD-02 nucleotide sequence was introduced, and wild-type Arabidopsisthaliana plants (18 days after sowing) were sprayed with topramezone at four different concentrations respectively, that is, 25 g ai/ha (one-fold field concentration, 1x), 50 g ai/ha (two-fold field concentration, 2x), 100 g ai/ha (four-fold field concentration, 4x) and 0 g ai/ha (water, Ox) to detect the herbicide tolerance of Arabidopsisthaliana.
According to the method as described in point 6 of Example 1, the above-mentioned Arabidopsisthaliana T1 plants and wild-type Arabidopsisthaliana plants (18 days after sowing) were sprayed with topramezone at two different concentrations respectively, that is, 25 g ai/ha (one-fold field concentration, 1x) and 100 g ai/ha (four-fold field concentration, 4x) to detect the herbicide tolerance of Arabidopsisthaliana,. […]

[1] = topramezone 25 g ai/ha (1x), HPPD from Avena sativa source
[2] = topramezone 25 g ai/ha (1x), number of plants, HPPD from Avena sativa source
[3] = topramezone 50 g ai/ha (2x), HPPD from Avena sativa source
[4] = topramezone 50 g ai/ha (2x), number of plants, HPPD from Avena sativa source
[5] = topramezone 100 g ai/ha (4x), HPPD from Avena sativa source
[6] = topramezone 100 g ai/ha (4x), number of plants, HPPD from Avena sativa source
[7] = Arabidopsis thaliana T1 plants sprayed with topramezone
[8] = non-372 position mutants, number of plants (of 20) in this grade, topramezone 25 g ai/ha (1x)
[9] = non-372 position mutants, number of plants (of 20) in this grade, topramezone 100 g ai/ha (4x)
[10] = non-372 position mutants, score for pesticide damage 0-100, topramezone 25 g ai/ha (1x)
[11] = non-372 position mutants, score for pesticide damage 0-100, topramezone 100 g ai/ha (4x)
[12] = non-372 position mutants, topramezone 25 g ai/ha (1x)
[13] = non-372 position mutants, topramezone 100 g ai/ha (4x)
[14] = topramezone 25 g ai/ha, mutation combination, Table 8
[15] = topramezone 100 g ai/ha, mutation combination, Table 8

Molecule | tolerance to topramezone, in words [7] | Grade 0 [8] | Grade 1 [8] | Grade 2 [8] | Grade 3 [8] | Grade 0 [9] | Grade 1 [9] | Grade 2 [9] | Grade 3 [9] | score [10] | score [11] | Resistance Grade [12] | Resistance Grade [13] | Grade 0 (number of plants) [14] | Grade 1 (number of plants) [14] | Grade 2 (number of plants) [14] | Grade 3 (number of plants) [14] | Resistance Grade [14] | score [14] | Grade 0 (number of plants) [15] | further results
B1 |  |  |  |  |  |  |  |  |  |  |  |  |  |  |  |  |  |  |  |  | tolerance to topramezone, in words (saturation mutation of HPPD from Avena sativa source (label F372X = AsHPPDm-F372X), topramezone 25, 50, 100 g ai/ha): better tolerance; Resistance Grade [1]: Highly resistant; score [1]: 7; Grade 0 [2]: 16; Grade 1 [2]: 4; Grade 2 [2]: 0; Grade 3 [2]: 0; Resistance Grade [3]: Highly resistant; score [3]: 0; Grade 0 [4]: 20; Grade 1 [4]: 0; Grade 2 [4]: 0; Grade 3 [4]: 0; Resistance Grade [5]: Highly resistant; score [5]: 0; Grade 0 [6]: 20; Grade 1 [6]: 0; Grade 2 [6]: 0; Grade 3 [6]: 0
B2 | no significant difference | 0 | 0 | 2 | 18 | 0 | 0 | 0 | 20 | 97 | 100 | non-resistant (non-resistant plants (scores 68-100)) | non-resistant (non-resistant plants (scores 68-100)) |  |  |  |  |  |  |  | 
B3 | no significant difference | 0 | 2 | 16 | 2 | 0 | 0 | 5 | 15 | 67 | 92 | poorly resistant (poorly resistant plants (scores 34-67)) | non-resistant (non-resistant plants (scores 68-100)) |  |  |  |  |  |  |  | 
B4 | a certain tolerance to low concentration of topramezone |  |  |  |  |  |  |  |  |  |  |  |  | 4 | 16 | 0 | 0 | Moderately resistant | 27 | 0 | Grade 1 (number of plants) [15]: 0; Grade 2 (number of plants) [15]: 14; Grade 3 (number of plants) [15]: 6; Resistance Grade [15]: Non-resistant; score [15]: 77
B5 | a certain tolerance to low concentration of topramezone |  |  |  |  |  |  |  |  |  |  |  |  | 2 | 18 | 0 | 0 | Moderately resistant | 30 | 0 | Grade 1 (number of plants) [15]: 0; Grade 2 (number of plants) [15]: 10; Grade 3 (number of plants) [15]: 10; Resistance Grade [15]: Non-resistant; score [15]: 83
